The source of these data is patent US20210261665A1.

Assay [1] concerns the target cynomolgus monkey PD-1 on cells (cynomolgus monkey) (UniProt B0LAJ3). In words: flow cytometry on CHOK1-cPD-1 cells. In general terms: Flow cytometry measures light scatter and fluorescence of single cells or particles in a stream.
In assay [2] the target is human PD-1 on cells (human) (UniProt Q15116). In words: cell based RBA (flow cytometry): blocking of Biotin-hPD-L2 binding to CHOK1-hPD-1 cells.
Assay [3] shares this target.
For assay [4] the target is unchanged. Nature of the assay: cell based RBA (flow cytometry): blocking of Biotin-hPD-L1 binding to CHOK1-hPD-1 cells.
Assay [5] concerns the target mPD-1 protein (ELISA coat) (mouse) (UniProt Q02242). Nature of the assay: ELISA against mPD-1 ECD-Fc protein (plate coat).
The target in assay [6] is human PD-1 on cells (human) (UniProt Q15116). In words: flow cytometry on CHOK1-hPD-1 cells.
Assay [7] deals with hPD-1 protein (ELISA coat) (human) (UniProt Q15116). In words: ELISA against hPD-1 ECD-Fc protein (plate coat). Background: ELISA stands for enzyme-linked immunosorbent assay.
hPD-1 protein (ELISA coat) (human), sequence (Q15116 25-167 limits assumed): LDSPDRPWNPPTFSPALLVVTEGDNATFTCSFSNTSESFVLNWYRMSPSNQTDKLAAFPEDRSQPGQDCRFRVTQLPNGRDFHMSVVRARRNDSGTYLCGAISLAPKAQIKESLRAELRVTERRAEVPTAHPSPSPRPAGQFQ

human PD-1 on cells (human), sequence (Q15116 25-288): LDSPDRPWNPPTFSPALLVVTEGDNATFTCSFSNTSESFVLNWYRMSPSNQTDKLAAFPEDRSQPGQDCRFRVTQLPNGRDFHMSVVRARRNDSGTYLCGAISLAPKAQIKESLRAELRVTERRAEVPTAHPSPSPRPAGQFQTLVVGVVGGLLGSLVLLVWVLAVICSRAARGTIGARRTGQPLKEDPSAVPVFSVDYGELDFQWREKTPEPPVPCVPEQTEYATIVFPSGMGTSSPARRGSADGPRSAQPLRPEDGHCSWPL
cynomolgus monkey PD-1 on cells (cynomolgus monkey), sequence (B0LAJ3 entry or part of it limits assumed): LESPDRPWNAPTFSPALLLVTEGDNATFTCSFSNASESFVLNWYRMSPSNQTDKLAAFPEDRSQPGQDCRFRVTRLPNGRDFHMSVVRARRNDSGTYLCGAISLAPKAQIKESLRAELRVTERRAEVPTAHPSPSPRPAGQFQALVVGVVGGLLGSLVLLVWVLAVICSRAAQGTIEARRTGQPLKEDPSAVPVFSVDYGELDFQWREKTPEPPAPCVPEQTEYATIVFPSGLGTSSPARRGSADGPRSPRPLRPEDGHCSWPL
mPD-1 protein (ELISA coat) (mouse), sequence (Q02242 25-167 limits assumed): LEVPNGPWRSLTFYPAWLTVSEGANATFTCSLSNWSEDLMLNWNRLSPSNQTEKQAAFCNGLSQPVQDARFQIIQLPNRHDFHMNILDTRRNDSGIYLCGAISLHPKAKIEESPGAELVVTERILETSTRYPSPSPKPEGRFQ

As to control human IgG4 (antibody), the Max MFI in assay [1] was determined as 86; in assay [6] it was 107. The Inhibition rate is -5.5% in assay [2] and 4.9% in assay [4]. In addition, the EC50 printed for the negative control; its RLU curve is flat at about 270000 and falls to about 225000 at the highest concentration, no activation in assay [3] stood at 12.4 µg/mL. The Max OD450 in assay [5] is 0.92; in assay [7] it was 0.67.
